The values that follow come from US20100190693A1.

One assay addresses KIX-VP16 (UniProt Q92793). Put plainly: cell-based or functional assay.
For assay [1], the target named is CBP (endogenous, HIT cells) (hamster). Put plainly: cell-based or functional assay.

KIX-VP16, sequence (Q92793 587-666): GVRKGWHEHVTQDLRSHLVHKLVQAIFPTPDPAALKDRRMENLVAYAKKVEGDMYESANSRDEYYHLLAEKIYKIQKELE

In the assay with KIX-VP16, GAL4-KID (from UniProt P16220 87-146) came in with a GAL4 luciferase reporter, mammalian two-hybrid assay in HIT cells, forskolin of 20 fold. Substance “GAL4-CREB M1 (Ser133Ala) (from UniProt P04386 1-147; P16220 1-341)” yielded a GAL4 luciferase reporter in HIT cells, response to cAMP in assay [1] of 2.5 fold.

Substance “GAL4-CREB, wild-type (from UniProt P04386 1-147; P16220 1-341)” displayed a GAL4 luciferase reporter in HIT cells, response to cAMP in assay [1] of 10 fold.
